Laboratory results: patent publication US11021532
Like-named read-outs stand apart in the source and are kept apart here.

Columns and labels:
[1] = target: SARS-CoV-2 Receptor Binding Domain (RBD) protein (SARS-CoV-2); assay: SPR (Carterra LSA), scFv captured via anti-V5, RBD as analyte, 1:1 fit
[2] = target: SARS-CoV-2 Receptor Binding Domain (RBD) protein (SARS-CoV-2); assay: SPR (Carterra LSA), scFv captured via anti-V5, RBD as analyte
[3] = target: SARS-CoV-2 Receptor Binding Domain (RBD) protein (SARS-CoV-2)

Row | Binder | Kd [1] | koff [1] | kon [1] | Kd [2] | Kd [3]
1 | COVID19_P23_F10 (scFv, V domains shown) VH: QVQLVQSGAEVKKPGASVKVSCKASGDTFSNYGISWVRQAPGQGLEWMGWMNPNSGGTNYAQKFQGRVTMTRDTSTSTVYMELSSLRSEDTAVYYCAIGTTVVTPFGYWGQGTLVNVSS VL: EIVMTQSPATLSVSPGERATLSCRASESVSSRYLAWYQQKPGQAPRLLIYGASTRATGIPARFSGSGSGTEFTLTISSLQSEDFAVYYCQQGYKNPPTFGQGTKVEIKR | 7.86 nM | 0.00077 s⁻¹ | 98000 M⁻¹ s⁻¹ | < 50 nM | 
2 | COVID19_P24_F11 (scFv, V domains shown) VH: EVQLLESGGGLVQPGGSLRLSCAASGFTFSGSAMHWVRQAPGKGLEYVSAISRNGGTTYYADSVKGRFTISRDNSKNTLYLQMNSLRAEDTAVYYCAKDGTLITTTLDYWGQGTLVTVSS VL: DIQMTQSPSSLSASVGDRVTITCRASQSIGYYLNWYQQKPGKAPKLLIYAASSLQSGVPSRFSGSGSGTDFTLTISSLQPEDFATYYCQQSYTTPLTFGGGTKVEIKR | 0.46 nM | 0.00028 s⁻¹ | 616000 M⁻¹ s⁻¹ | < 50 nM | 
3 | COVID19_P24_H06 (scFv, V domains shown) VH: EVQLLESGGGLVQPGGSLRLSCAASGFSFSNYDMHWVRQAPGKGLEWVAVISYDGGFKLYADSVKGRFTISRDNAKNSLYLRMNSLRSEDTAVYYCARGQVRGSGPQVVVMDVWGKGTTVTVSS VL: DIQMTQSPSSLSASVGDRVTITCQASQGIRNDLGWYQQKPGKAPKLLIYDASRLQSGVPSRFSGSGSGTDFTLTISSLQPEDFATYYCQQYYSTPPLTFGQGTKVEIKR | 0.5 nM | 5.7e-05 s⁻¹ | 120000 M⁻¹ s⁻¹ | < 50 nM | 
4 | COVID19_P24_D09 (scFv, V domains shown) VH: QVQLVQSGAEVKKPGASVKVSCKASGGTFSSYAISWVRQAPGQGLEWMGIVNPSSGSTTYAQKFQGRVTMTRDTSTSTVYMELSSLRSEDTAVYYCARVRGSAAIAMMDVWGQGTTVTVSS VL: DIQMTQSPSSLSASVGDRVTITCRASQDIRNELGWYQQKPGKAPKLLIYAASSLQSGVPSRFSGSGSGTDFTLTISSLQPEDFATYYCQQSYSTPPWTFGQGTKLEIKR | 0.5 nM | 5.7e-05 s⁻¹ | 114000 M⁻¹ s⁻¹ | < 50 nM | 
5 | COVID19_P11_H02 (scFv, V domains shown) VH: QVQLVQSGAEVKKPGASVKVSCKASGGTFTSYHMHWVRQAPGQGLEWMGWMNPNSGNTGYALKFQGRVTMTRDTSTSTVYMELSSLRSEDTAVYYCASFERFGELVPETFDYWGQGTLVTVSS VL: DIQMTQSPSSLSASVGDRVTITCRASQGIRNDLAWYQQKPGKAPKLLIYAASSLQSGVPSRFSGSGSGTDFTLTISSLQPEDFATYYCQQSYSTPPTFGQGTKLEIKR | 2.2 nM | 0.00071 s⁻¹ | 320000 M⁻¹ s⁻¹ | < 50 nM | 
6 | COVID19_P24_C06 (scFv, V domains shown) VH: QVQLVQSGAEVKKPGASVKVSCKASGYIFTSYPIHWVRQAPGQGLEWMGWMNPNSGNTGYAQKFQGRVTMTRDTSTSTVYMELSSLRSEDTAVYYCARDRGSYDTDAFDIWGQGTMVTVSS VL: DIQMTQSPSSLSASVGDRVTITCRASQDISNYLNWYQQKPGKAPKLLIYAASNLQSGVPSRFSGSGSGTDFTLTISSLQPEDFATYYCQQANSFPSTFGQGTKLEIKR | 0.3 nM | 5.7e-05 s⁻¹ | 228000 M⁻¹ s⁻¹ | < 50 nM | 
7 | COVID19_P24_H04 (scFv, V domains shown) VH: QVQLVQSGAEVKKPGASVKVSCKASGYTFTDYHMHWVRQAPGQGLEWMGWMNPNSGNTSYAQKFQGRVTMTRDTSTSTVYMELSSLRSEDTAVYYCAGMGMGRDGYNSRAFDIWGQGTMVTVSS VL: DIQMTQSPSSLSASVGDRVTITCRASQSISTYLNWYQQKPGKAPKLLIYAASTLQSGVPSRFSGSGSGTDFTLTISSLQPEDFATYYCQQSYSMPLTFGQGTKVEIKR | 4 nM | 0.00068 s⁻¹ | 170000 M⁻¹ s⁻¹ | < 50 nM | 
8 | COVID19_P23_G10 (scFv, V domains shown) VH: QVQLVQSGAEVKKPGSSVKVSCKASGYTFTDYYIQWVRQAPGQGLEWMGWINPNSGGPNYAQKFQGRVTITADESTSTAYMELSSLRSEDTAVYYCARVDYGDYGRLEDYWGQGTLVTVSS VL: DIQMTQSPSSLSASVGDRVTITCRASQSIYSWLAWYQQKPGKAPKLLIYDASSLESGVPSRFSGSGSGTDFTLTISSLQPEDFATYYCQQLNSYPYTFGQGTKVEIKR | 0.37 nM | 5.7e-05 s⁻¹ | 154000 M⁻¹ s⁻¹ | < 50 nM | 
9 | COVID19_P24_A09 (scFv, V domains shown) VH: QVQLVQSGAEVKKPGASVKVSCKASGYTFTDYYMQWVRQAPGQGLEWMGWIDPHSGATNYAHSFQGRVTMTRDTSTSTVYMELSSLRSEDTAVYYCARLEGGSYWTGYFDLWGRGTLVTVSS VL: EIVMTQSPATLSVSPGERATLSCRASQSVSSNYLAWYQQKPGQAPRLLIYAVSSRATGIPARFSGSGSGTEFTLTISSLQSEDFAVYYCQQYGSSPLTFGGGTKVEIKR | 1.51 nM | 0.000229 s⁻¹ | 152000 M⁻¹ s⁻¹ | < 50 nM | 
10 | COVID19_P11_D12 (scFv, V domains shown) VH: QVQLVQSGAEVKKPGASVKVSCKASGYTFTENEMHWVRQAPGQGLEWMGIINPSGGSTSYAQKFQGRVTMTRDTSTSTVYMELSSLRSEDTAVYYCAKTRYGGNSRSRYYYYGMDVWGQGTTVTVSS VL: DIQMTQSPSSLSASVGDRVTITCRASQHISSYLNWYQQKPGKAPKLLIYAASALQSGVPSRFSGSGSGTDFTLTISSLQPEDFATYYCQQGYGTPYTFGQGTKVEIKR | 4.3 nM | 0.00034 s⁻¹ | 79000 M⁻¹ s⁻¹ | < 50 nM | 
11 | COVID19_P24_A11 (scFv, V domains shown) VH: QVQLVQSGAEVKKPGASVKVSCKASGYTFTENEMHWVRQAPGQGLEWMGIINPSGGSTSYAQKFQGRVTMTRDTSTSTVYMELSSLRSEDTAVYYCARDLMDIVVVPWLGGMDVWGQGTTVTVSS VL: DIQMTQSPSSLSASVGDRVTITCRASQAITNYLAWYQQKPGKAPKLLIYAASSLQSGVPSRFSGSGSGTDFTLTISSLQPEDFATYYCQQYYSYPPTFGQGTKLEIKR | 1.95 nM | 0.000308 s⁻¹ | 158000 M⁻¹ s⁻¹ | < 50 nM | 
12 | COVID19_P24_C10 (scFv, V domains shown) VH: QVQLVQSGAEVKKPGASVKVSCKASGYTFTENEMHWVRQAPGQGLEWMGIINPSGGSTSYAQKFQGRVTMTRDTSTSTVYMELSSLRSEDTAVYYCARDSGVDTATLRYYYYGMDVWGQGTTVTVSS VL: DIQMTQSPSSLSASVGDRVTITCQASQDISKYLNWYQQKPGKAPKLLIYGASTLSDGVPSRFSGSGSGTDFTLTISSLQPEDFATYYCQQGYSTPYSFGQGTKLEIKR | 0.88 nM | 0.000487 s⁻¹ | 553000 M⁻¹ s⁻¹ | < 50 nM | 
13 | COVID19_P11_D08 (scFv, V domains shown) VH: QVQLVQSGAEVKKPGASVKVSCKASGYTFTENEMHWVRQAPGQGLEWMGIINPSGGSTSYAQKFQGRVTMTRDTSTSTVYMELSSLRSEDTAVYYCARDSGVDTATLRYYYYGMDVWGQGTTVTVSS VL: DIQMTQSPSSLSASVGDRVTITCQASQDISKYLNWYQQKPGKAPKLLIYGASTLSDGVPSRFSGSGSGTDFTLTISSLQPEDFATYYCQQGYSTPYSFGQGTKLEIKR | 4.7 nM | 0.00053 s⁻¹ | 110000 M⁻¹ s⁻¹ | < 50 nM | 
14 | COVID19_P24_G09 (scFv, V domains shown) VH: QVQLVQSGAEVKKPGASVKVSCKASGYTFTRYYIHWVRQAPGQGLEWMGIINPSGGSTTYAQKFQGRVTMTRDTSTSTVYMELSSLRSEDTAVYYCAKGAPHDYIWGSYRPDAFDIWGQGTMVTVSS VL: DIQMTQSPSSLSASVGDRVTITCRASENIDSWLAWYQQKPGKAPKLLIYEASTLESGVPSRFSGSGSGTDFTLTISSLQPEDFATYYCHQYLSSPETFGQGTKVEIKR | 1.56 nM | 0.000512 s⁻¹ | 329000 M⁻¹ s⁻¹ | < 50 nM | 
15 | COVID19_P11_H07 (scFv, V domains shown) VH: QVQLVQSGAEVKKPGASVKVSCKASGYTFTSYDINWVRQAPGQGLEWMGWMNSNSGSTGYAQKFQGRVTMTRDTSTSTVYMELSSLRSEDTAVYYCARGWMAYDAFDIWGQGTMVTVSS VL: DIQMTQSPSSLSASVGDRVTITCQASQSIYNYLNWYQQKPGKAPKLLIYDASNLETGVPSRFSGSGSGTDFTLTISSLQPEDFATYYCQQAISFPLTFGGGTKVEIKR | 0.5 nM | 5.7e-05 s⁻¹ | 110000 M⁻¹ s⁻¹ |  | < 50 nM
16 | COVID19_P11_G03 (scFv, V domains shown) VH: QVQLVQSGAEVKKPGASVKVSCKASGYTFTSYEINWVRQAPGQGLEWMGIINPSDGSSTYAQKFQGRVTMTRDTSTSTVYMELSSLRSEDTAVYYCARDRGYSYDHDQIYYYYGMDVWGQGTTVTVSS VL: DIQMTQSPSSLSASVGDRVTITCRVSQGISSYLNWYQQKPGKAPKLLIYAASILQSGVPSRFSGSGSGTDFTLTISSLQPEDFATYYCQQGYSTPFTFGPGTKVDIKR | 6.45 nM | 0.00064 s⁻¹ | 99000 M⁻¹ s⁻¹ | < 50 nM | 
17 | COVID19_P24_B09 (scFv, V domains shown) VH: QVQLVQSGAEVKKPGSSVYVSCKASGYTFTSYGISWVRQAPGQGLEWMGGIIPMFGTTNYAQKFQGRVTITADKSTSTAYMELSSLRSEDTAVYYCARDRGDTIDYWGQGTLVTVSS VL: DIQMTQSPSSLSASVGDRVTITCRASQGISNNLNWYQQKPGKAPKLLIYAASSLESGVPSRFSGSGSGTDFTLTISSLQPEDFATYYCQQGNGFPLTFGPGTKVDIKR | 27.5 nM | 0.0139 s⁻¹ | 508000 M⁻¹ s⁻¹ | < 50 nM | 
